For one molecule, activity results are on record in patent US20240392271, “ENGINEERED CASX REPRESSOR SYSTEMS” (Scribe Therapeutics Inc., published 2024).

Holding throughout (assay): cell_activity; PAM TTC; day 50
One data set has as its target T1, ELXR2-ZIM3 (#2.A) (synthetic construct).
T1 chain: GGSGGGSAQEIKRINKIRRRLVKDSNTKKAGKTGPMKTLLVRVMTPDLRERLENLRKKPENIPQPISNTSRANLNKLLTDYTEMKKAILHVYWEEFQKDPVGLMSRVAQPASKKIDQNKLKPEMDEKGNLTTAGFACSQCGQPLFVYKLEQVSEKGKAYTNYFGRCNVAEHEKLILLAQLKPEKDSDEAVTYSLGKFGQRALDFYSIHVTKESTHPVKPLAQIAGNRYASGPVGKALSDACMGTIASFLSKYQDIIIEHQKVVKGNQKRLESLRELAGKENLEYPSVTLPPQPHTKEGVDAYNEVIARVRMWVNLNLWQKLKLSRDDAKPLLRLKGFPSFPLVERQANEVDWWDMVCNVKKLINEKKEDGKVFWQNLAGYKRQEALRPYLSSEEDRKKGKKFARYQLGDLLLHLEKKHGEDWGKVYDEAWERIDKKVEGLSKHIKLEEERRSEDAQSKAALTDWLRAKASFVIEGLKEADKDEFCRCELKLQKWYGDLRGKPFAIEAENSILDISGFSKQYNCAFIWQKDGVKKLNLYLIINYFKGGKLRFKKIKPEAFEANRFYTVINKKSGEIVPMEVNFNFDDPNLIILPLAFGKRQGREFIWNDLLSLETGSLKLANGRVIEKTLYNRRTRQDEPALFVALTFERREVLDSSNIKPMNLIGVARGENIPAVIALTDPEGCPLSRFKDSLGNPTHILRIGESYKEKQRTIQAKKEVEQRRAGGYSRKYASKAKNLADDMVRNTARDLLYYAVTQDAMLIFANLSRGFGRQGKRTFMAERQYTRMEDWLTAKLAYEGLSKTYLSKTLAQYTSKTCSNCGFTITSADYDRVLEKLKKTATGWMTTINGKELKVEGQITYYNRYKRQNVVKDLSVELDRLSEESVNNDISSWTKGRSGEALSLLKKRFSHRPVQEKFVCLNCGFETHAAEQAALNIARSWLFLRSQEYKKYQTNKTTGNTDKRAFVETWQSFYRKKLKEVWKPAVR
The settings on record: tags: DNMT3A CD, DNMT3L ID, ZIM3 KRAB fusion, NLS.

For another data set, the target named is T2, ELXR1-ZIM3 (#1.A) (synthetic construct).
T2 chain: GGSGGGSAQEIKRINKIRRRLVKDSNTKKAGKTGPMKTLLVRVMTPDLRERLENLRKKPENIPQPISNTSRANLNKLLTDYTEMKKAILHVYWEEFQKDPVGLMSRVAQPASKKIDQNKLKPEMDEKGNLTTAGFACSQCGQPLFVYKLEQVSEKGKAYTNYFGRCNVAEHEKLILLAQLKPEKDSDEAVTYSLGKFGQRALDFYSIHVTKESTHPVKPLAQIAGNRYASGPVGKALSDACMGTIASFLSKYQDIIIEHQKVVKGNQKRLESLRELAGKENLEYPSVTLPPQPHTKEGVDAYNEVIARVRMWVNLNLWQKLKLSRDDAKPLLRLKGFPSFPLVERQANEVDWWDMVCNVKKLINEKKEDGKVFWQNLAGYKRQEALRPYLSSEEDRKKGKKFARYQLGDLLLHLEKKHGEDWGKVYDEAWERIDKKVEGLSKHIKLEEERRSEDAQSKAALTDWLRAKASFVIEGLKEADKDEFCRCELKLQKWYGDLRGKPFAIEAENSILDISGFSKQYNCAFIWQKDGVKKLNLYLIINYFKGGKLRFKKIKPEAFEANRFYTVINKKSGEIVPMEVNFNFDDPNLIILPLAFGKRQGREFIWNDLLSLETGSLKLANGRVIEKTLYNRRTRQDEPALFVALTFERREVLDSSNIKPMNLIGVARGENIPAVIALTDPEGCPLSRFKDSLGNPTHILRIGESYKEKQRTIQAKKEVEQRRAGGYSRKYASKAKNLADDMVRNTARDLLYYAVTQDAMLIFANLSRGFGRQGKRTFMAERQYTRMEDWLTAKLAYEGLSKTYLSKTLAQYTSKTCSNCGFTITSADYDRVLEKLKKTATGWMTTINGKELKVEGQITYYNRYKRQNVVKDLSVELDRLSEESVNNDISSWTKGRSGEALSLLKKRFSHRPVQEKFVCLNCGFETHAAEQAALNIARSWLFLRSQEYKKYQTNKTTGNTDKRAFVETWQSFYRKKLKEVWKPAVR
The settings on record: tags: DNMT3A CD, DNMT3L ID, ZIM3 KRAB fusion, NLS.

The next data set has as its target T3, ELXR3-ZIM3 (#3.A) (synthetic construct).
T3 chain: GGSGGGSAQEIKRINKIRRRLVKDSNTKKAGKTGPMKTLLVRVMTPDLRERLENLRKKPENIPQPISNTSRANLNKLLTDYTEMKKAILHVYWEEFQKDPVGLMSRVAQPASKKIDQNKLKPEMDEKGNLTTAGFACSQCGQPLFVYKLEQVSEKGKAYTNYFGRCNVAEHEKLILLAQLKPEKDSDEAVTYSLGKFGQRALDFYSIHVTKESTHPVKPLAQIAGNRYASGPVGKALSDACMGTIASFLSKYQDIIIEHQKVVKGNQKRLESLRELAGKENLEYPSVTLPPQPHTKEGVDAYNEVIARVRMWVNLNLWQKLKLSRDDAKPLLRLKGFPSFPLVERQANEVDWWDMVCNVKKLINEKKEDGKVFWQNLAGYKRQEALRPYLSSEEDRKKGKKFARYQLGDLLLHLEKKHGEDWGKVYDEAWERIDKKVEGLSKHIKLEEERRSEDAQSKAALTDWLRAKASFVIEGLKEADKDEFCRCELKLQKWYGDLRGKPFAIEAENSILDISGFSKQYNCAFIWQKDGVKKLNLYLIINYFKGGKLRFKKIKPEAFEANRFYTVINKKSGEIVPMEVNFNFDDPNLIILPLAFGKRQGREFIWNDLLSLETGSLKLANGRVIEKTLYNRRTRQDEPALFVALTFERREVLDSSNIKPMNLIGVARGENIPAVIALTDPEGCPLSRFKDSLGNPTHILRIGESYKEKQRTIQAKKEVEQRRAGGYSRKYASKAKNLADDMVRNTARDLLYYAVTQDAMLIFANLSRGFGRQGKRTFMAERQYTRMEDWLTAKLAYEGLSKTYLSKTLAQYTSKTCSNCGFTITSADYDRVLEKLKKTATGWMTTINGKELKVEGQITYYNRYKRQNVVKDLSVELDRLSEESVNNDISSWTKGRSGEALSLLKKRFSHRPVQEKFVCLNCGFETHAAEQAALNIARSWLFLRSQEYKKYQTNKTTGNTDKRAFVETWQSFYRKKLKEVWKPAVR
Conditions: tags: DNMT3A CD, DNMT3L ID, ZIM3 KRAB fusion, NLS.

Another data set deals with T4, ELXR2-ZNF10 (#2.B) (synthetic construct).
T4 chain: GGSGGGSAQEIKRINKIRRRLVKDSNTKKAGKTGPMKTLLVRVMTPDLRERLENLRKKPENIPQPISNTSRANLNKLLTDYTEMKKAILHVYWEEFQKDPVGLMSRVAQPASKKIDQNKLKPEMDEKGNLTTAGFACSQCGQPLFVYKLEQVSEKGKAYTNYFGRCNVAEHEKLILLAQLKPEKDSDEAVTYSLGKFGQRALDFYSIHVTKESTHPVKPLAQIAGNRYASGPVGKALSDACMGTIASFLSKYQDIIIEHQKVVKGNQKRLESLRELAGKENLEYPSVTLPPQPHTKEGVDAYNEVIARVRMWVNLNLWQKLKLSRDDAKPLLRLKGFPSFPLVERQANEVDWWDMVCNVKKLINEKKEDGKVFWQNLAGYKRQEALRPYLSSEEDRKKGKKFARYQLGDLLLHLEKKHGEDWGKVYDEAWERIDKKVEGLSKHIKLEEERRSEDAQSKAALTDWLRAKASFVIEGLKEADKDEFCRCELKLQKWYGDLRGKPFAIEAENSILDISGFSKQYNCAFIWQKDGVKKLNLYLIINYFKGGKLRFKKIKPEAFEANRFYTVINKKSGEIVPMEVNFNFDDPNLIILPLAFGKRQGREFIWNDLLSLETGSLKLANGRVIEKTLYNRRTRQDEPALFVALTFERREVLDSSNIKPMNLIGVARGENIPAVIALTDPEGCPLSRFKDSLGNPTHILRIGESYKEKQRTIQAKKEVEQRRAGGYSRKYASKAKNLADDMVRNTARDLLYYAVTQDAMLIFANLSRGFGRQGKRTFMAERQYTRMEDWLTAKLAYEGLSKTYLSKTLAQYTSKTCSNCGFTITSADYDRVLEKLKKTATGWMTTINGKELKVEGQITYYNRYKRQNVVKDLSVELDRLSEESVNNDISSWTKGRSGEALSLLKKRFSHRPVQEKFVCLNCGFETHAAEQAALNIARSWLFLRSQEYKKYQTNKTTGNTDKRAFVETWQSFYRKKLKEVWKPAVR
Conditions: tags: DNMT3A CD, DNMT3L ID, ZNF10 KRAB fusion, NLS.

The target in another data set is T5, ELXR3-ZNF10 (#3.B) (synthetic construct).
T5 chain: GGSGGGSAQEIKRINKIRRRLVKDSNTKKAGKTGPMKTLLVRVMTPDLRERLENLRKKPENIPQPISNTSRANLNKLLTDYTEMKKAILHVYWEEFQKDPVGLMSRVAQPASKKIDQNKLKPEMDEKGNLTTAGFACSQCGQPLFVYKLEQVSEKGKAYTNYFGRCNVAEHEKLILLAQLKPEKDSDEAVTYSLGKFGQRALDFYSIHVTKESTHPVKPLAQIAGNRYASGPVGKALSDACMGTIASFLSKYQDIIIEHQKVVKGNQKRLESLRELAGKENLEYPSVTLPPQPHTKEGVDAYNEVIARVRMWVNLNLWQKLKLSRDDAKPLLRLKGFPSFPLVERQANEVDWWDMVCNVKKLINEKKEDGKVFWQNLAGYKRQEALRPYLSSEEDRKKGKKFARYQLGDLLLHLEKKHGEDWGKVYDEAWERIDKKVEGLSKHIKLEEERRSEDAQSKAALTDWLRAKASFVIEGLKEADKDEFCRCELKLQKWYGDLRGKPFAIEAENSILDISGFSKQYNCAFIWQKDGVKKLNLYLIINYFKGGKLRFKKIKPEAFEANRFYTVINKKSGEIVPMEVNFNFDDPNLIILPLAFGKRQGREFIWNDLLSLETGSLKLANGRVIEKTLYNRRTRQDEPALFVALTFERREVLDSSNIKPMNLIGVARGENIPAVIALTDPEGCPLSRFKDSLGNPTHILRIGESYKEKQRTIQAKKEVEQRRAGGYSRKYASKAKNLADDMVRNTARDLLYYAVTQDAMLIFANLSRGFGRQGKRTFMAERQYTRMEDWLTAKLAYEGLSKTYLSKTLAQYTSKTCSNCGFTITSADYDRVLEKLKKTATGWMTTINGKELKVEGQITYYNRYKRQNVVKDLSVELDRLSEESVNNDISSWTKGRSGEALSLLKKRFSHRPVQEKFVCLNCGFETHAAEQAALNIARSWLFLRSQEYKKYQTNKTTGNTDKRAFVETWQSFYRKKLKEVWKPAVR
Conditions: tags: DNMT3A CD, DNMT3L ID, ZNF10 KRAB fusion, NLS.

B1: gRNA scaffold 174 + spacer 7.37 ; B2M target 7.37 (ssRNA ; dsDNA)
RNA: ACUGGCGCUUUUAUCUGAUUACUUUGAGAGCCAUCACCAGCGACUAUGUCGUAGUGGGUAAAGCUCCCUCUUCGGAGGGAGCAUCAAAGGGCCGAGAUGUCUCGCUCCG
DNA 1: GGCCGAGATGTCTCGCTCCG
DNA 2: CGGAGCGAGACATCTCGGCC
Regarding B1, the activity worked out at 58.8 % HLA-negative cells with ELXR2-ZIM3 (#2.A); 73.7 % HLA-negative cells with ELXR1-ZIM3 (#1.A); 17.5 % HLA-negative cells with ELXR3-ZIM3 (#3.A); 36.9 % HLA-negative cells with ELXR2-ZNF10 (#2.B); 17.1 % HLA-negative cells with ELXR3-ZNF10 (#3.B).
